The source of these data is the supplement of paper PMC5998384.

The subject of series [1] is HeLa Kyoto. Description: melting temperature (median over replicates), in situ; higher = more thermally stable.
The test system of series [2] is HeLa Kyoto. Description: thermal stability score vs G1/S (z-score of summed log2 fold changes over temperatures); higher = more thermally stable than in G1/S.
The subject of series [3] is HeLa Kyoto. Description: solubility change mitosis vs G1/S (difference of NP-40 vs SDS log2 ratios) (log2 ratio difference); higher = more soluble in mitosis.
In series [4] the test system is HeLa Kyoto. Description: solubility in G1/S (NP-40 vs SDS abundance) (log2 ratio); higher = more soluble. The note with it: cell cycle stage: G1/S.
Where [5] appears, read: cell cycle stage: early G1 (4.5 h after nocodazole release).
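For melting temperature (median over replicates), in situ in this document: HeLa Kyoto cells synchronized by double thymidine or nocodazole block, proteins quantified by TMT10plex mass spectrometry, three independent biological replicates.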
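For solubility change mitosis vs G1/S (difference of NP-40 vs SDS log2 ratios) in this document: synchronized HeLa Kyoto cells (double thymidine block for G1/S, nocodazole release for mitosis), protein amounts in NP-40 versus SDS lysates quantified by mass spectrometry, three biological replicates.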
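For solubility in G1/S (NP-40 vs SDS abundance) in this document: HeLa Kyoto cells arrested at G1/S by double thymidine block, proteins quantified by TMT10plex mass spectrometry in mild NP-40 versus SDS extracts, three biological replicates.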
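For thermal stability score vs G1/S (z-score of summed log2 fold changes over temperatures) in this document: synchronized HeLa Kyoto cells, proteins quantified by TMT10plex mass spectrometry, three biological replicates, mitosis taken 0.5 h after nocodazole release, G1/S directly after double thymidine block.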

Regarding “MTSGATRYRLSCSLRGHELDVRGLVCCAYPPGAFVSVSRDRTTRLWAPDSPNRSFTEMHCMSGHSNFVSCVCIIPSSDIYPHGLIATGGNDHNICIFSLDSPMPLYILKGHKNTVCSLSSGKFGTLLSGSWDTTAKVWLNDKCMMTLQGHTAAVWAVKILPEQGLMLTGSADKTVKLWKAGRCERTFSGHEDCVRGLAILSETEFLSCANDASIRRWQITGECLEVYYGHTNYIYSISVFPNCRDFVTTAEDRSLRIWKHGECAQTIRLPAQSIWCCCVLDNGDIVVGASDGIIRVFTESEDRTASAEEIKAFEKELSHATIDSKTGDLGDINAEQLPGREHLNEPGTREGQTRLIRDGEKVEAYQWSVSEGRWIKIGDVVGSSGANQQTSGKVLYEGKEFDYVFSIDVNEGGPSYKLPYNTSDDPWLTAYNFLQKNDLNPMFLDQVAKFIIDNTKGQMLGLGNPSFSDPFTGGGRYVPGSSGSSNTLPTADPFTGAGRYVPGSASMGTTMAGVDPFTGNSAYRSAASKTMNIYFPKKEAVTFDQANPTQILGKLKELNGTAPEEKKLTEDDLILLEKILSLICNSSSEKPTVQQLQILWKAINCPEDIVFPALDILRLSIKHPSVNENFCNEKEGAQFSSHLINLLNPKGKPANQLLALRTFCNCFVGQAGQKLMMSQRESLMSHAIELKSGSNKNIHIALATLALNYSVCFHKDHNIEGKAQCLSLISTILEVVQDLEATFRLLVALGTLISDDSNAVQLAKSLGVDSQIKKYSSVSEPAKVSECCRFILNLL [PLAA]”, the melting temperature in the series on HeLa Kyoto [1] (cell cycle stage: G1/S) was 49.5 °C; in the series on HeLa Kyoto [1] (cell cycle stage: mitosis), 50 °C. In addition, the thermal stability score in the series on HeLa Kyoto [2] (setting [5]) stood at 1.32; with HeLa Kyoto [2] (cell cycle stage: mitosis) it was 1.3. The “solubility change mitosis (log2)” value in the series on HeLa Kyoto [3] is -0.198. In addition, the “solubility in G1/S (log2)” value in the series with HeLa Kyoto [4] was -0.0389.

For “MDGLLNPRESSKFIAENSRDVFIDSGGVRRVAELLLAKAAGPELRVEGWKALHELNPRAADEAAVNWVFVTDTLNFSFWSEQDEHKCVVRYRGKTYSGYWSLCAAVNRALDEGIPITSASYYATVTLDQVRNILRSDTDVSMPLVEERHRILNETGKILLEKFGGSFLNCVRESENSAQKLMHLVVESFPSYRDVTLFEGKRVSFYKRAQILVADTWSVLEGKGDGCFKDISSITMFADYRLPQVLAHLGALKYSDDLLKKLLKGEMLSYGDRQEVEIRGCSLWCVELIRDCLLELIEQKGEKPNGEINSILLDYYLWDYAHDHREDMKGIPFHRIRCIYY [C9ORF64]”, the results for the melting temperature in the series with HeLa Kyoto [1] (cell cycle stage: G1/S) and in the series with HeLa Kyoto [1] (cell cycle stage: mitosis) were 50.2 °C and 49.7 °C, respectively. The thermal stability score was -1.65 in the series on HeLa Kyoto [2] (setting [5]) and 0.153 in the series on HeLa Kyoto [2] (cell cycle stage: mitosis). The “solubility change mitosis (log2)” value with HeLa Kyoto [3] was -0.283. In addition, in the series with HeLa Kyoto [4], the “solubility in G1/S (log2)” value is -0.318.

In the case of “MANNSPALTGNSQPQHQAAAAAAQQQQQCGGGGATKPAVSGKQGNVLPLWGNEKTMNLNPMILTNILSSPYFKVQLYELKTYHEVVDEIYFKVTHVEPWEKGSRKTAGQTGMCGGVRGVGTGGIVSTAFCLLYKLFTLKLTRKQVMGLITHTDSPYIRALGFMYIRYTQPPTDLWDWFESFLDDEEDLDVKAGGGCVMTIGEMLRSFLTKLEWFSTLFPRIPVPVQKNIDQQIKTRPRKIKKDGKEGAEEIDRHVERRRSRSPRRSLSPRRSPRRSRSRSHHREGHGSSSFDRELEREKERQRLEREAKEREKERRRSRSIDRGLERRRSRSRERHRSRSRSRDRKGDRRDRDREREKENERGRRRDRDYDKERGNEREKERERSRERSKEQRSRGEVEEKKHKEDKDDRRHRDDKRDSKKEKKHSRSRSRERKHRSRSRSRNAGKRSRSRSKEKSSKHKNESKEKSNKRSRSGSQGRTDSVEKSKKREHSPSKEKSRKRSRSKERSHKRDHSDSKDQSDKHDRRRSQSIEQESQEKQHKNKDETV [PRPF38B]”, the melting temperature was 50 °C with HeLa Kyoto [1] (cell cycle stage: G1/S) and 50.6 °C in the series on HeLa Kyoto [1] (cell cycle stage: mitosis). Besides, the thermal stability score in the series on HeLa Kyoto [2] (setting [5]) was determined as 0.848; with HeLa Kyoto [2] (cell cycle stage: mitosis), 1.5. Also, the “solubility change mitosis (log2)” value with HeLa Kyoto [3] turned out to be 0.407. Also, the “solubility in G1/S (log2)” value in the series on HeLa Kyoto [4] was -0.989.

In the series with HeLa Kyoto [1] (cell cycle stage: G1/S), “MDEDGLPLMGSGIDLTKVPAIQQKRTVAFLNQFVVHTVQFLNRFSTVCEEKLADLSLRIQQIETTLNILDAKLSSIPGLDDVTVEVSPLNVTSVTNGAHPEATSEQPQQNSTQDSGLQESEVSAENILTVAKDPRYARYLKMVQVGVPVMAIRNKMISEGLDPDLLERPDAPVPDGESEKTVEESSDSESSFSD [CCDC53]” returned a melting temperature of 52.7 °C. Moreover, the figures for the thermal stability score in the series with HeLa Kyoto [2] (setting [5]) and in the series on HeLa Kyoto [2] (cell cycle stage: mitosis) were 0.159 and -0.73, respectively. The “solubility change mitosis (log2)” value in the series with HeLa Kyoto [3] is -0.0689. For the same sequence, in the series on HeLa Kyoto [4], the “solubility in G1/S (log2)” value is -0.349.

In the case of “MSHVAVENALGLDQQFAGLDLNSSDNQSGGSTASKGRYIPPHLRNREATKGFYDKDSSGWSSSKDKDAYSSFGSRSDSRGKSSFFSDRGSGSRGRFDDRGRSDYDGIGSRGDRSGFGKFERGGNSRWCDKSDEDDWSKPLPPSERLEQELFSGGNTGINFEKYDDIPVEATGNNCPPHIESFSDVEMGEIIMGNIELTRYTRPTPVQKHAIPIIKEKRDLMACAQTGSGKTAAFLLPILSQIYSDGPGEALRAMKENGRYGRRKQYPISLVLAPTRELAVQIYEEARKFSYRSRVRPCVVYGGADIGQQIRDLERGCHLLVATPGRLVDMMERGKIGLDFCKYLVLDEADRMLDMGFEPQIRRIVEQDTMPPKGVRHTMMFSATFPKEIQMLARDFLDEYIFLAVGRVGSTSENITQKVVWVEESDKRSFLLDLLNATGKDSLTLVFVETKKGADSLEDFLYHEGYACTSIHGDRSQRDREEALHQFRSGKSPILVATAVAARGLDISNVKHVINFDLPSDIEEYVHRIGRTGRVGNLGLATSFFNERNINITKDLLDLLVEAKQEVPSWLENMAYEHHYKGSSRGRSKSSRFSGGFGARDYRQSSGASSSSFSSSRASSSRSGGGGHGSSRGFGGGGYGGFYNSDGYGGNYNSQGVDWWGN [DDX3X]”, the melting temperature in the series with HeLa Kyoto [1] (cell cycle stage: G1/S) and in the series with HeLa Kyoto [1] (cell cycle stage: mitosis) was 47.4 °C in each case. The thermal stability score with HeLa Kyoto [2] (setting [5]) was -0.877; in the series on HeLa Kyoto [2] (cell cycle stage: mitosis), 2.82. Besides, the “solubility change mitosis (log2)” value in the series with HeLa Kyoto [3] turned out to be 0.197. In addition, the “solubility in G1/S (log2)” value in the series on HeLa Kyoto [4] was -0.457.

For “MSNRVVCREASHAGSWYTASGPQLNAQLEGWLSQVQSTKRPARAIIAPHAGYTYCGSCAAHAYKQVDPSITRRIFILGPSHHVPLSRCALSSVDIYRTPLYDLRIDQKIYGELWKTGMFERMSLQTDEDEHSIEMHLPYTAKAMESHKDEFTIIPVLVGALSESKEQEFGKLFSKYLADPSNLFVVSSDFCHWGQRFRYSYYDESQGEIYRSIEHLDKMGMSIIEQLDPVSFSNYLKKYHNTICGRHPIGVLLNAITELQKNGMNMSFSFLNYAQSSQCRNWQDSSVSYAAGALTVH [MEMO1]”, the melting temperature in the series on HeLa Kyoto [1] (cell cycle stage: G1/S) stood at 53.7 °C; in the series with HeLa Kyoto [1] (cell cycle stage: mitosis), 54.2 °C. In addition, the thermal stability score with HeLa Kyoto [2] (setting [5]) was -0.361; in the series with HeLa Kyoto [2] (cell cycle stage: mitosis) it was -0.452. The “solubility change mitosis (log2)” value with HeLa Kyoto [3] is -0.0409. For the same sequence, the “solubility in G1/S (log2)” value with HeLa Kyoto [4] was 0.029.

In the case of “MSVTYDDSVGVEVSSDSFWEVGNYKRTVKRIDDGHRLCSDLMNCLHERARIEKAYAQQLTEWARRWRQLVEKGPQYGTVEKAWMAFMSEAERVSELHLEVKASLMNDDFEKIKNWQKEAFHKQMMGGFKETKEAEDGFRKAQKPWAKKLKEVEAAKKAHHAACKEEKLAISREANSKADPSLNPEQLKKLQDKIEKCKQDVLKTKEKYEKSLKELDQGTPQYMENMEQVFEQCQQFEEKRLRFFREVLLEVQKHLDLSNVAGYKAIYHDLEQSIRAADAVEDLRWFRANHGPGMAMNWPQFEEWSADLNRTLSRREKKKATDGVTLTGINQTGDQSLPSKPSSTLNVPSNPAQSAQSQSSYNPFEDEDDTGSTVSEKDDTKAKNVSSYEKTQSYPTDWSDDESNNPFSSTDANGDSNPFDDDATSGTEVRVRALYDYEGQEHDELSFKAGDELTKMEDEDEQGWCKGRLDNGQVGLYPANYVEAIQ [PACSIN2]”, the values for the melting temperature in the series with HeLa Kyoto [1] (cell cycle stage: G1/S) and with HeLa Kyoto [1] (cell cycle stage: mitosis) were 49.6 °C and 49.7 °C, respectively. The thermal stability score amounted to 1.11 in the series with HeLa Kyoto [2] (setting [5]) and 1.7 in the series with HeLa Kyoto [2] (cell cycle stage: mitosis). Further, the “solubility change mitosis (log2)” value in the series on HeLa Kyoto [3] is -0.0385. Further, the “solubility in G1/S (log2)” value in the series with HeLa Kyoto [4] was determined as 0.218.

As for “MAPRRVRSFLRGLPALLLLLLFLGPWPAASHGGKYSREKNQPKPSPKRESGEEFRMEKLNQLWEKAQRLHLPPVRLAELHADLKIQERDELAWKKLKLDGLDEDGEKEARLIRNLNVILAKYGLDGKKDARQVTSNSLSGTQEDGLDDPRLEKLWHKAKTSGKFSGEELDKLWREFLHHKEKVHEYNVLLETLSRTEEIHENVISPSDLSDIKGSVLHSRHTELKEKLRSINQGLDRLRRVSHQGYSTEAEFEEPRVIDLWDLAQSANLTDKELEAFREELKHFEAKIEKHNHYQKQLEIAHEKLRHAESVGDGERVSRSREKHALLEGRTKELGYTVKKHLQDLSGRISRARHNEL [LRPAP1]”, the melting temperature turned out to be 55.3 °C in the series with HeLa Kyoto [1] (cell cycle stage: G1/S) and 54.1 °C in the series with HeLa Kyoto [1] (cell cycle stage: mitosis). The thermal stability score was 2.72 with HeLa Kyoto [2] (setting [5]) and -0.375 in the series with HeLa Kyoto [2] (cell cycle stage: mitosis). Moreover, in the series on HeLa Kyoto [3], the “solubility change mitosis (log2)” value is -0.0876. For the same sequence, the “solubility in G1/S (log2)” value in the series on HeLa Kyoto [4] came to 0.724.

Regarding “MICTFLRAVQYTEKLHRSSAKRLLLPYIVLNKACLKTEPSLRCGLQYQKKTLRPRCILGVTQKTIWTQGPSPRKAKEDGSKQVSVHRSQRGGTAVPTSQKVKEAGRDFTYLIVVLFGISITGGLFYTIFKELFSSSSPSKIYGRALEKCRSHPEVIGVFGESVKGYGEVTRRGRRQHVRFTEYVKDGLKHTCVKFYIEGSEPGKQGTVYAQVKENPGSGEYDFRYIFVEIESYPRRTIIIEDNRSQDD [TIMM21]”, the melting temperature in the series on HeLa Kyoto [1] (cell cycle stage: G1/S) came out at 52.1 °C; in the series on HeLa Kyoto [1] (cell cycle stage: mitosis), 51.6 °C. Also, the results for the thermal stability score with HeLa Kyoto [2] (setting [5]) and in the series on HeLa Kyoto [2] (cell cycle stage: mitosis) were 0.315 and -0.0739, respectively. Moreover, the “solubility change mitosis (log2)” value in the series with HeLa Kyoto [3] is 0.0282. For the same sequence, the “solubility in G1/S (log2)” value with HeLa Kyoto [4] is -0.209.
